In US20190252037A1:
Where two headings read alike, the source gives them in different places.

Key:
[1] = biological target: heterotrimeric polymerase from influenza A/little yellow-shouldered bat/Guatemala/060/2010 (H17N10), wild type (Influenza A/little yellow-shouldered bat/Guatemala/060/2010 (H17N10))
[2] = biological target: 2-repeats (14 amino acids) Ser-5 phosphorylated CTD peptide, fluorescently labelled with FAM at the N-terminal end
[3] = biological target: 4-repeats (28 amino acids) Ser-5 phosphorylated CTD peptide, fluorescently labelled with FAM at the N-terminal end
[4] = biological target: 4-repeats non-phosphorylated CTD peptide, fluorescently labelled with FAM at the N-terminal end
[5] = biological target: 2-repeats (14 amino acids) Ser-5 phosphorylated CTD peptide, fluorescently labelled with FAM at the N-terminal end; remark: listed apart in the source
[6] = biological target: 4-repeats (28 amino acids) Ser-5 phosphorylated CTD peptide, fluorescently labelled with FAM at the N-terminal end; remark: listed apart in the source
[7] = biological target: 4-repeats (28 amino acids) Ser-5 phosphorylated CTD peptide, fluorescently labelled with FAM at the N-terminal end; remark: listed apart in the source

“Ser-5-phosphorylated 28-mer CTD peptide (four heptad repeats), not labelled” gave an apparent KD (KD') [1] of 2700 nM.
“heterotrimeric polymerase from human influenza B/Memphis/13/03, wild type (enzyme)” gave a Kd [2] of 4200 nM and a Kd [3] of 2900 nM.
With “heterotrimeric polymerase from influenza A/little yellow-shouldered bat/Guatemala/060/2010 (H17N10), wild type (enzyme)” the Kd [4] was > 10000 nM, the Kd [5] was 6100 nM and the Kd [6] was 900 nM. It also gave a Kd [7] of 800 nM.
